± gives the uncertainty stated by the source.
B1: Ankyrin-1, residues 1405 to 1484; numbered along this chain, P16157 (parent)
chain: MKMAVISEHLGLSWAELARELQFSVEDINRIRVENPNSLLEQSVALLNLWVIREGQNANMENLYTALQSIDRGEIVNMLE

Variants of: B1
Assay: abundance fitness (aPCA) (normalised: wild type 0, dead -1); higher = more abundant; growth selection in yeast, the domain comes from the species named
Details: Homo sapiens

Variant | abundance fitness
MKMAVISEHLGLSWAELARELQFSVEDINRIRVENPNSLLEQSVALLNLWVIREGQNANMENLYTALQSIDRGEIVNELE [M78E] | -0.236 ± 0.14
MKMAVISEHLGLSWAELARERQFSVEDINRIRVENPNSLLEQSVALLNLWVIREGQNANMENLYTALQSIDRGEIVNMLE [L21R] | -0.923 ± 0.26
MKMAVISEHLGLSWAELARELQFSVEDINRIRVENPNSLLEQSVALLNLWVIREGQNANMENLYTALQSADRGEIVNMLE [I70A] | -0.808 ± 0.16
MKMAVISEHLGLSWAELARELQFSVEDGNRIRVENPNSLLEQSVALLNLWVIREGQNANMENLYTALQSIDRGEIVNMLE [I28G] | -0.891 ± 0.11
MKMAVISEHLGLSWAELARELQFSVEDINRIRVENPNSLLEQLVALLNLWVIREGQNANMENLYTALQSIDRGEIVNMLE [S43L] | -0.944 ± 0.13
MKMAVISEHLGLSWAELARELQFSVEDINRIRVENPNSLLEQYVALLNLWVIREGQNANMENLYTALQSIDRGEIVNMLE [S43Y] | -0.857 ± 0.16
MKMAVISEHLGLSWAELARELQFSVEDINRIRVENPNSLLEQSVALLNLWVIREGQNANMENLRTALQSIDRGEIVNMLE [Y64R] | -0.407 ± 0.056
MKMAVIREHLGLSWAELARELQFSVEDINRIRVENPNSLLEQSVALLNLWVIREGQNANMENLYTALQSIDRGEIVNMLE [S7R] | -0.504 ± 0.059
MKMAVISEHLGLSWAELARELQFSVEDINLIRVENPNSLLEQSVALLNLWVIREGQNANMENLYTALQSIDRGEIVNMLE [R30L] | -0.213 ± 0.057
MKMAVISEHLGLSWAELARELQFSVEDINRIRVENPNSLLEQSVALLNLWVIREGQNANMENLYTALTSIDRGEIVNMLE [Q68T] | -0.256 ± 0.11
MKMAVISEHLGLSWAELARELQFSVEDINRIRVENPNSLLEQSVALLNLWVIREGQNANMENLYTALQSIDRGEIVNMLI [E80I] | -0.682 ± 0.26
MKMAVISETLGLSWAELARELQFSVEDINRIRVENPNSLLEQSVALLNLWVIREGQNANMENLYTALQSIDRGEIVNMLE [H9T] | -0.285 ± 0.16
MKMAVISEHLGLSWAELARELQFSVEDINRIRVEKPNSLLEQSVALLNLWVIREGQNANMENLYTALQSIDRGEIVNMLE [N35K] | -0.064 ± 0.16
MKMAVISEHLGLSWAELARELQFSVEDINRIRVEIPNSLLEQSVALLNLWVIREGQNANMENLYTALQSIDRGEIVNMLE [N35I] | -0.457 ± 0.11
MKMAVISEHLGLSWAELARELQFSVEDINRIRMENPNSLLEQSVALLNLWVIREGQNANMENLYTALQSIDRGEIVNMLE [V33M] | -0.034 ± 0.076
MKMAVISEHLGLSWAELARELQFSVTDINRIRVENPNSLLEQSVALLNLWVIREGQNANMENLYTALQSIDRGEIVNMLE [E26T] | 0.023 ± 0.094
MKMAVISEHLGLSWAELARELQFSVEDINRIRVENPNSLLEQSVALLNLWVIREGQNANMENLYTPLQSIDRGEIVNMLE [A66P] | -0.1 ± 0.066
MKMAVISEHLGLSWAELARELQFSVEAINRIRVENPNSLLEQSVALLNLWVIREGQNANMENLYTALQSIDRGEIVNMLE [D27A] | -0.071 ± 0.069

Variant | abundance fitness
MKMAVISEHLGLSWAELARELQFSVELINRIRVENPNSLLEQSVALLNLWVIREGQNANMENLYTALQSIDRGEIVNMLE [D27L] | -0.429 ± 0.077
MKMAVISEHLGLSWAELARELQFSVEDINRIRVENPNSLLEQSVALLNLWVIREGQNANMENLYTALQSIDRGEIVPMLE [N77P] | -0.283 ± 0.11
MKMAVISEHLGGSWAELARELQFSVEDINRIRVENPNSLLEQSVALLNLWVIREGQNANMENLYTALQSIDRGEIVNMLE [L12G] | 0.104 ± 0.082
MKMAVISEHLGLSWAELARELQFSVEDINRIRVENPNSLTEQSVALLNLWVIREGQNANMENLYTALQSIDRGEIVNMLE [L40T] | -0.081 ± 0.085
MKMAVISEHLGLSWAELARELQFSVEDINRIRVENPNSLLEQSVALLNLWVIGEGQNANMENLYTALQSIDRGEIVNMLE [R53G] | -0.507 ± 0.058
MKMAVISEHLRLSWAELARELQFSVEDINRIRVENPNSLLEQSVALLNLWVIREGQNANMENLYTALQSIDRGEIVNMLE [G11R] | -0.41 ± 0.084
MKMAVISEHLGLSWAELARELQFSVEDINRIRVENPNSLLEQSVALLNLWVIREGQIANMENLYTALQSIDRGEIVNMLE [N57I] | -0.636 ± 0.47
MKMAVISEHMGLSWAELARELQFSVEDINRIRVENPNSLLEQSVALLNLWVIREGQNANMENLYTALQSIDRGEIVNMLE [L10M] | -0.805 ± 0.27
MKMAVISEHLGLSWAELARELQFSDEDINRIRVENPNSLLEQSVALLNLWVIREGQNANMENLYTALQSIDRGEIVNMLE [V25D] | -0.05 ± 0.1
MKMAVISEHLGLSWAELARELQFSQEDINRIRVENPNSLLEQSVALLNLWVIREGQNANMENLYTALQSIDRGEIVNMLE [V25Q] | -0.03 ± 0.066
MKMAVISEHLGLSWAELARELQFSCEDINRIRVENPNSLLEQSVALLNLWVIREGQNANMENLYTALQSIDRGEIVNMLE [V25C] | -0.161 ± 0.083
MKMAVISEHLGLSWAELARELQFSVEDINRIRVENPNSFLEQSVALLNLWVIREGQNANMENLYTALQSIDRGEIVNMLE [L39F] | -0.068 ± 0.14
MKMAVISEHLGLSWAELARELQFSVEDINRIRVENPNSLLEQSVALLNLWVIREGQNANMENLYTALQSIDRFEIVNMLE [G73F] | -0.284 ± 0.1
MKMAEISEHLGLSWAELARELQFSVEDINRIRVENPNSLLEQSVALLNLWVIREGQNANMENLYTALQSIDRGEIVNMLE [V5E] | -0.372 ± 0.096
MKMAVISEHLGLSWAELARELQFSVEDINRIRVENPNSLLEQSVALLNNWVIREGQNANMENLYTALQSIDRGEIVNMLE [L49N] | -0.256 ± 0.12
MKMAVISEHLGLSWAELARELQFSVEDINRIRVENPNNLLEQSVALLNLWVIREGQNANMENLYTALQSIDRGEIVNMLE [S38N] | -0.174 ± 0.11
MKMAVISEHLGLSWAELARQLQFSVEDINRIRVENPNSLLEQSVALLNLWVIREGQNANMENLYTALQSIDRGEIVNMLE [E20Q] | 0.069 ± 0.12
